# Assay results published in patent US20080206230A1 (INSTITUT PASTEUR, published 2008).
# Biological target: T1, rat NEP ecto-endopeptidase (renal tissue) (rat, UniProt P07861 2-750)
# T1 sequence (looked up): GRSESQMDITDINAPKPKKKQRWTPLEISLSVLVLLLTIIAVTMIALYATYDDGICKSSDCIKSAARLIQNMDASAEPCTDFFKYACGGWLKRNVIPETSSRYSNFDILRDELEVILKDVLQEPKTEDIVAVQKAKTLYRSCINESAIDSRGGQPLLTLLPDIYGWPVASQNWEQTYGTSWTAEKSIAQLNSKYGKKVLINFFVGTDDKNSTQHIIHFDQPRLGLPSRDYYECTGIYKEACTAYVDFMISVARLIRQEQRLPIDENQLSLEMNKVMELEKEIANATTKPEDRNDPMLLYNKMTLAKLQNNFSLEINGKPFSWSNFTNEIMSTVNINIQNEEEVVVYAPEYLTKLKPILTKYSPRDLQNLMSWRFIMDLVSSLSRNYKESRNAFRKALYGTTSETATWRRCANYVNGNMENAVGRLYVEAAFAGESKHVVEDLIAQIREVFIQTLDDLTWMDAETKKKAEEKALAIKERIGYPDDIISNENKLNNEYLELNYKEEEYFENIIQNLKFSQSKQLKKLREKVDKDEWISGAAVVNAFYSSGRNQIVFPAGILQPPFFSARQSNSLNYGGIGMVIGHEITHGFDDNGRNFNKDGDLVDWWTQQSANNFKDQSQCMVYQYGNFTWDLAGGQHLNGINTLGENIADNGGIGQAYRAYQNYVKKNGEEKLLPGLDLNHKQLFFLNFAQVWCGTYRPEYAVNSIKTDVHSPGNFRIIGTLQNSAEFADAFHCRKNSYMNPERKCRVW
# Test: cell-based or functional assay
binder,measurement,value
QRFSR [QRFSR peptide],inhibitory efficiency towards rat renal NEP relative to human cell surface NEP (LNCaP),≥ 10 fold lower
